Results published in PMC8660800.

Molecular target: NOT9 module of the human CCR4-NOT complex (human) (UniProt Q92600)

inhibition of deadenylation by 50 nM CCR4-NOT MINI (50 nM 7-mer-A20 RNA, stopped after 32 min), MBP-RNF219-C titrated 0.05-5.0 µM; inhibition already apparent at 0.05 µM: 2.5 µM
B1: MBP-RNF219-C (residues 434-726) with a C-terminal StrepII tag (domain or fragment)
chain: SSNVSNKDSSEDDISRSENEKKSECFSSPKTGFWDCCSTSYAQNLDFESSEGNTIANSVGEISSKLSEKSGLCLSKRLNSIRSFEMNRTRTSSEASMDAAYLDKISELDSMMSESDNSKSPCNNGFKSLDLDGLSKSSQGSEFLEEPDKLEEKTELNLSKGSLTNDQLENGSEWKPTSFFLLSPSDQEMNEDFSLHSSSCPVTNEIKPPSCLFQTEFSQGILLSSSHRLFEDQRFGSSLFKMSSEMHSLHNHLQSPWSTSFVPEKRNKNVNQSTKRKIQSSLSSASPSKATKS
